Measurements: patent CN111690066A

Assays:
[1] = biological target: 自产IL-4Rα重组蛋白 (in-house human recombinant IL-4Rα, residues 26-232 of NP_000409.1, expressed in 293F cells) (human) (UniProt P24394); assay: indirect ELISA
[2] = biological target: 近岸购买的IL-4Rα重组蛋白 (IL-4Rα, Novoprotein, Cat#CS33) (human) (UniProt P24394); assay: indirect ELISA
[3] = biological target: IL-4Rα on TF-1 cells (human) (UniProt P24394); assay: cell-based or functional assay

- EC50 [1]: 0.25 nM
- EC50 [2]: 0.25 nM
- EC50 of neutralisation of IL-4-induced TF-1 cell proliferation [3]: 0.18 nM
- EC50 of neutralisation of IL-13-induced TF-1 cell proliferation [3]: 0.073 nM
Substance: Tab1 (dupilumab) (antibody)
